To fix the notation:
B1: CXC chemokine receptor 4 (CXCR4) on lentiviral particles (receptor, UniProt P61073 1-352, looked up)
chain: MEGISIYTSDNYTEEMGSGDYDSMKEPCFREENANFNKIFLPTIYSIIFLTGIVGNGLVILVMGYQKKLRSMTDKYRLHLSVADLLFVITLPFWAVDAVANWYFGNFLCKAVHVIYTVNLYSSVLILAFISLDRYLAIVHATNSQRPRKLLAEKVVYVGVWIPALLLTIPDFIFANVSEADDRYICDRFYPNDLWVVVFQFQHIMVGLILPGIVILSCYCIIISKLSHSKGHQKRKALKTTVILILAFFACWLPYYIGISIDSFILLEIIKQGCEFENTVHKWISITEALAFFHCCLNPILYAFLGAKFKTSAQHALTSVSRGSSLKILSKGKRGGHSSVSTESESSSFHSS
notes: also called CXCR4-expressing LVPs
B2: CXC chemokine ligand 14 (CXCL14), synthetic (ligand, human, UniProt O95715 35-111, looked up)
chain: SKCKCSRKGPKIRYSDVKKLEMKPKYPHCEEKMVIITTKSVSRYRGQEHCLHPKLQSTKRFIKWYNAWNEKRRVYEE
notes: source: chemically synthesized

Where only a bound is given, the exact number is not on record here.

Experiment [1] has as its target T1, full-length CXCL12α, synthetic (human, UniProt P48061-2 22-89).
T1 construct: also called CXC chemokine ligand 12; source: chemically synthesized
Kind of experiment: SPR; CXCR4 lentiviral particles (8000-8500 RU) immobilised on a CM5 chip; CXCL12 or CXCL14 12.5-200 nM injected in HBS (100 mM HEPES, 150 mM NaCl, 0.005% P20, pH 7.4), 30 ul/min, 25°C; reference: particles from CXCR4-negative cells or none; simple 1-site model; Biacore 3000. The conditions noted are these: one partner purified. In general terms: Surface plasmon resonance follows binding to a sensor surface in real time, without labels.

Experiment [2] deals with B1. The experiment is described as above. The conditions noted are these: one partner purified.
For experiment [3], the target named is B1. Briefly: cell-based or functional assay.

T1 sequence (P48061 22-89): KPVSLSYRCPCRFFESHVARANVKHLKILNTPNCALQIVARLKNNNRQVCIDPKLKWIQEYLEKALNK

Take B1: in experiment [1], the Kd was found to be 35 nM, the koff turned out to be 0.00428 s⁻¹ and the kon was found to be 122000 M⁻¹ s⁻¹.

Regarding B2, in experiment [2], the Kd was 8 nM, the koff was determined as 0.00317 s⁻¹ and the kon was 396000 M⁻¹ s⁻¹. For the same molecule, in experiment [3], the “entry of R5-tropic HIV-1 (pR8Bal) into TZM-bl cells (luciferase reporter), 0-1000 nM CXCL14” value was > 3 fold and the “entry of X4 HIV-1 (pNL4.3) into TZM-bl cells (luciferase reporter), 10-1000 nM CXCL14 alone” value was > 3 fold.

One may read the Kd as a measure of binding affinity in units of concentration. A lower Kd goes with tighter binding. The koff is the rate constant with which the complex falls apart. A lower koff goes with a long-lived complex. For orientation: kon means the second-order rate constant of association. Lower therefore signals slower complex formation.

The record behind these values is article PMC5472405, “Epithelial chemokine CXCL14 synergizes with CXCL12 via allosteric modulation of CXCR4” (The FASEB Journal, 2017).
